Experimental data taken from US20150202287A1, “COMBINATION THERAPIES COMPRISING ANTI-ERBB3 AGENTS” (Merrimack Pharmaceuticals, Inc., priority 2012, published 2015).

Tests used:
phospho-ErbB3 (pErbB3) [1] = assay: Cell signaling assay, pErbB3 ELISA, ZR75-30; format: cell-based; conditions: ZR75-30 cells, stimulation with 5 nM heregulin for 10 min; read-out: IC50, reduction of pErbB3 levels
Experimental: (§1) Cell lysates are probed for phospho-ErbB3 (pErbB3), and phospho-AKT (pAKT) by ELISA as described previously (Schoeberl et al, 2009) Inhibitor IC50 values are calculated by fitting dose-response data to a 4-parameter sigmoidal curve (GraphPad Prism®, GraphPad Software, Inc., La Jolla, Calif.).
(§2) CRL-1504®), cells were incubated with serial dilutions of either inhibitor for 15 minutes, 1 hour, 4 hours, and 24 hours followed by stimulation with 5 nM heregulin for 10 min Amounts of pAKT and pErbB3 were measured by ELISA essentially as described.

phospho-AKT (pAKT) = assay: Cell signaling assay, pAKT ELISA, ZR75-30; format: cell-based; conditions: ZR75-30 cells, stimulation with 5 nM heregulin for 10 min; read-out: IC50, reduction of pAKT levels
Experimental: as §1, §2

ErbB2 and ErbB3 = assay: Affinity of MM-111 antigen-binding sites
NCI-N87 cells = assay: T-DM1 and heregulin dose matrix cell viability, NCI-N87; format: cell-based; conditions: for cell viability: T-DM1 0 μg/ml, with MM-111 1 μM, 72 h
Experimental: Cells were allowed to adhere 16-20 hours at +37° C., 5% CO2. Cells were stimulated for 4 hours by adding 5 μl of culture media containing recombinant human NRG-1-β1 EGF domain (HRG1) bringing the final HRG1 stimulation concentration to 0, 0.313, 0.625, 1.25, 2.5, 5 or 10 nM. […] All conditions were assayed in biological quadruplicates. Cells were incubated for 72 h at +37° C., 5% CO2. Cell viability was determined by CellTiter-Glo® Luminescent Cell Viability Assay by adding 20 μl of reconstituted CellTiter-Glo reagent per well, incubating plated for 10 minutes at RT in an orbital shaker and reading the luminescence signal using Biotek™ Synergy H1 Hybrid Reader.

phospho-ErbB3 (pErbB3) [2] = format: cell-based; conditions: up to 24 hours incubation
Experimental: as §1
Model-generated dose-response curves overlay the experimental data (FIG. 7a). […] Untreated and heregulin-stimulated cells were probed for pErbB3 and pAKT and the IC50 was calculated (FIG. 7b).
as §2

Substance	IC50 (phospho-ErbB3 (pErbB3) [1]) [nM]	IC50 (phospho-AKT (pAKT)) [nM]	affinity of ErbB2 antigen-binding site relative to ErbB3 antigen-binding site (ErbB2 and ErbB3)	cell viability (NCI-N87 cells; HRG 0 nM)	cell viability (NCI-N87 cells; HRG 0.313 nM)	cell viability (NCI-N87 cells; HRG 0.625 nM)	cell viability (NCI-N87 cells; HRG 1.25 nM)	cell viability (NCI-N87 cells; HRG 2.5 nM)	cell viability (NCI-N87 cells; HRG 5 nM)	cell viability (NCI-N87 cells; HRG 10 nM)	inhibition of heregulin-induced ErbB3 activation relative to lapatinib (phospho-ErbB3 (pErbB3) [2])	activity of T-DM1 with exogenous HRG (NCI-N87 cells; HRG 0.313-10 nM)
MM-111	5	4	about 30 times	100 % of control	101.4158 % of control	105.024 % of control	110.2781 % of control	118.0867 % of control	126.5145 % of control	146.1417 % of control	superior to lapatinib by greater than an order of magnitude	
ado-trastuzumab emtansine [T-DM1, reference compound]												exogenous HRG decreases the activity of T-DM1
